The source of these data is patent US20230212319A1, “NOVEL ANTIGEN BINDING DOMAINS AND SYNTHETIC ANTIGEN RECEPTORS INCORPORATING THE SAME” (University of Southern California, priority 2020, published 2023).

The subject of one experiment is RAJI cells. Put plainly: JNG assay, co-culture with RAJI cells. The experiment is classed as cell-based. The conditions noted are these: JNG cells expressing construct, co-culture with Raji. In a few lines:
(§1)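 Read-out is NFAT-driven GFP measured by flow cytometry after ~4–18 h co-culture of SAR-expressing JNG cells with target cells (E:T about 1:2). SARs were introduced by lentiviral spinfection and selected with puromycin or blasticidin when possible; scores (+/- to 5+ ≈ 5–50% GFP+) are relative to parental JNG cells.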

The subject of a further experiment is L363 cells. As to the kind of experiment: JNG assay, co-culture with L363 cells. The experiment is classed as cell-based. The conditions noted are these: co-culture with L363. In a few lines: as §1

B1: 22034 (protein)
chain: MALPVTALLLPLALLLHAARPQLQLQESGPGLVKPSETLSLTCTVSGDSISSGDYYWGWIRQPPGKGLEWIGHIYYSGVTYYNPSLKSRVTISVDTSRNQFSLKLSSVTAADTAVYYCTREDSSNWRSRGQGTLVTVSSLESGGGGSFEEVQLLESGGGLVQPGGSLRLSCAASGFTFSSYAMSWVRQAPGKGLEWVSSISGSGDYIYYADSVKGRFTISRDISKNTLYLQMNSLRAEDTAVYYCAKEGTGANSSLADYRGQGTLVTVSSTREQKLISEEDGSGIQNPDPAVYQLRDSKSSDKSVCLFTDFDSQTNVSQSKDSDVYITDKCVLDMRSMDFKSNSAVAWSNKSDFACANAFNNSIIPEDTFFPSSDVPCDVKLVEKSFETDTNLNFQNLSVIGFRILLLKVAGFNLLMTLRLWSSRAKRSGSGVKQTLNFDLLKLAGDVESNPGPSRGRMAKPLSQEESTLIERATATINSIPISEDYSVASAALSSDGRIFTGVNVYHFTGGPCAELVVLGTAAAAAAGNLTCIVAIGNENRGILSPCGRCRQVLLDLHPGIKAIVKDSDGQPTAVGIRELLPSGYVWEG
Regarding B1, the “NFAT-GFP ASSAY: Raji” value with RAJI cells was “+/- (refer to approximately 5%, 10%, 20%, 30%, 40% and 50% GFP positive cells)”. Further, the “NFAT-GFP ASSAY: L363” value in the experiment on L363 cells was “+/- (refer to approximately 5%, 10%, 20%, 30%, 40% and 50% GFP positive cells)”.

B2: 22051 (protein)
chain: MALPVTALLLPLALLLHAARPQLQLQESGPGLVKPSETLSLTCTVSGDSISSGDYYWGWIRQPPGKGLEWIGHIYYSGVTYYNPSLKSRVTISVDTSRNQFSLKLSSVTAADTAVYYCTREDSSNWRSRGQGTLVTVSSLEDKTHTCPPCPAGRADCGFTSESYQQGVLSATILYEILLGKATLYAVLVSALVLMAMVKRKDSRGRAKRSGSGATNFSLLKQAGDVEENPGPTSMDWIWRILFLVGAATGAHSFEVQLLESGGGLIQPGGSLRLSCAASGFTFSSHAMTWVRQAPGKGLEWVSAISGSGDYTHYADSVKGRFTISRDNSKNTVYLQMNSLRAEDSAVYYCAKDEDGGSLLGHRGQGTLVTVSSTRDKTHTCPPCPAEVKTDSTDHVKPKETENTKQPSKSCHKPKAIVHTEKVNMMSLTVLGLRMLFAKTVAVNFLLTAKLFFL
For B2, the “NFAT-GFP ASSAY: Raji” value with RAJI cells is “+/- (refer to approximately 5%, 10%, 20%, 30%, 40% and 50% GFP positive cells)”. Also, the “NFAT-GFP ASSAY: L363” value in the experiment on L363 cells was “+/- (refer to approximately 5%, 10%, 20%, 30%, 40% and 50% GFP positive cells)”.

B3: 22048 (protein)
chain: MALPVTALLLPLALLLHAARPQVQLVESGGGLVQPGGSLRLSCAASGFTFTNHAMSWVRQAPGKGLELVSSISGNGRTTYYADSVKGRFTISRDISKNTLDLQMNSLRAEDTAVYYCAKDGGETLVDSRGQGTLVTVSSLEGQPKANPTVTLFPPSSEELQANKATLVCLISDFYPGAVTVAWKADGSPVKAGVETTKPSKQSNNKYAASSYLSLTPEQWKSHRSYSCQVTHEGSTVEKTVAPTECSPIKTDVITMDPKDNCSKDANDTLLLQLTNTSAYYMYLLLLLKSVVYFAIITCCLLRRTAFCCNGEKSRAKRSGSGATNFSLLKQAGDVEENPGPTSMDWIWRILFLVGAATGAHSFEEVQLLESGGGLVQPGGSLRLSCAASGFTFSSYAMSWVRQAPGKGLEWVSSISGSGDYIYYADSVKGRFTISRDISKNTLYLQMNSLRAEDTAVYYCAKEGTGANSSLADYRGQGTLVTVSSTRASTKGPSVFPLAPSSKSTSGGTAALGCLVKDYFPEPVTVSWNSGALTSGVHTFPAVLQSSGLYSLSSVVTVPSSSLGTQTYICNVNHKPSNTKVDKRVEPKSCEVKTDSTDHVKPKETENTKQPSKSCHKPKAIVHTEKVNMMSLTVLGLRMLFAKTVAVNFLLTAKLFFLRAKRSGSGVKQTLNFDLLKLAGDVESNPGPSRGHMTEYKPTVRLATRDDVPRAVRTLAAAFADYPATRHTVDPDRHIERVTELQELFLTRVGLDIGKVWVADDGAAVAVWTTPESVEAGAVFAEIGPRMAELSGSRLAAQQQMEGLLAPHRPKEPAWFLATVGVSPDHQGKGLGSAVVLPGVEAAERAGVPAFLETSAPRNLPFYERLGFTVTADVEVPEGPRTWCMTRKPGA
Turning to B3, the “NFAT-GFP ASSAY: Raji” value in the experiment on RAJI cells is “+ (refer to approximately 5%, 10%, 20%, 30%, 40% and 50% GFP positive cells)”. For the same molecule, the “NFAT-GFP ASSAY: L363” value in the experiment on L363 cells is “+/- (refer to approximately 5%, 10%, 20%, 30%, 40% and 50% GFP positive cells)”.

B4: 22050 (protein)
chain: MALPVTALLLPLALLLHAARPQVQLVESGGGLVQPGGSLRLSCAASGFTFTNHAMSWVRQAPGKGLELVSSISGNGRTTYYADSVKGRFTISRDISKNTLDLQMNSLRAEDTAVYYCAKDGGETLVDSRGQGTLVTVSSLEGQPKANPTVTLFPPSSEELQANKATLVCLISDFYPGAVTVAWKADGSPVKAGVETTKPSKQSNNKYAASSYLSLTPEQWKSHRSYSCQVTHEGSTVEKTVAPTECSPIKTDVITMDPKDNCSKDANDTLLLQLTNTSAYYMYLLLLLKSVVYFAIITCCLLRRTAFCCNGEKSRAKRSGSGATNFSLLKQAGDVEENPGPTSMDWIWRILFLVGAATGAHSFEEVQLLESGGGLVQPGGSLRLSCAASGFTFSSYAMSWVRQAPGKGLEWVSSISGSGDYIYYADSVKGRFTISRDISKNTLYLQMNSLRAEDTAVYYCAKEGTGANSSLADYRGQGTLVTVSSTRASTKGPSVFPLAPSSKSTSGGTAALGCLVKDYFPEPVTVSWNSGALTSGVHTFPAVLQSSGLYSLSSVVTVPSSSLGTQTYICNVNHKPSNTKVDKRVEPKSCEVKTDSTDHVKPKETENTKQPSKSCHKPKAIVHTEKVNMMSLTVLGLRMLFAKTVAVNFLLTAKLFFLRAKRSGSGVKQTLNFDLLKLAGDVESNPGPSRGHMTEYKPTVRLATRDDVPRAVRTLAAAFADYPATRHTVDPDRHIERVTELQELFLTRVGLDIGKVWVADDGAAVAVWTTPESVEAGAVFAEIGPRMAELSGSRLAAQQQMEGLLAPHRPKEPAWFLATVGVSPDHQGKGLGSAVVLPGVEAAERAGVPAFLETSAPRNLPFYERLGFTVTADVEVPEGPRTWCMTRKPGA
Regarding B4, the “NFAT-GFP ASSAY: Raji” value with RAJI cells is “+ (refer to approximately 5%, 10%, 20%, 30%, 40% and 50% GFP positive cells)”. For the same molecule, the “NFAT-GFP ASSAY: L363” value in the experiment with L363 cells was “+/- (refer to approximately 5%, 10%, 20%, 30%, 40% and 50% GFP positive cells)”.

B5: 22041 (protein)
chain: MALPVTALLLPLALLLHAARPQLQLQESGPGLVKPSETLSLTCTVSGDSISSGDYYWGWIRQPPGKGLEWIGHIYYSGVTYYNPSLKSRVTISVDTSRNQFSLKLSSVTAADTAVYYCTREDSSNWRSRGQGTLVTVSSLEGSGRADCGFTSESYQQGVLSATILYEILLGKATLYAVLVSALVLMAMVKRKDSRGRAKRSGSGATNFSLLKQAGDVEENPGPTSMDWIWRILFLVGAATGAHSFEVQLLESGGGLIQPGGSLRLSCAASGFTFSSHAMTWVRQAPGKGLEWVSAISGSGDYTHYADSVKGRFTISRDNSKNTVYLQMNSLRAEDSAVYYCAKDEDGGSLLGHRGQGTLVTVSSTRDKTHTCPPCPAIPEDTFFPSPESSCDVKLVEKSFETDTNLNFQNLSVIGFRILLLKVAGFNLLMTLRLWSSRAKRSGSGVKQTLNFDLLKLAGDVESNPGPSRGHMTEYKPTVRLATRDDVPRAVRTLAAAFADYPATRHTVDPDRHIERVTELQELFLTRVGLDIGKVWVADDGAAVAVWTTPESVEAGAVFAEIGPRMAELSGSRLAAQQQMEGLLAPHRPKEPAWFLATVGVSPDHQGKGLGSAVVLPGVEAAERAGVPAFLETSAPRNLPFYERLGFTVTADVEVPEGPRTWCMTRKPGA
For B5, the “NFAT-GFP ASSAY: Raji” value in the experiment on RAJI cells is “+ (refer to approximately 5%, 10%, 20%, 30%, 40% and 50% GFP positive cells)”. Also, in the experiment with L363 cells, the “NFAT-GFP ASSAY: L363” value was “+ (refer to approximately 5%, 10%, 20%, 30%, 40% and 50% GFP positive cells)”.
